Measurements reported in paper PMC10881517.

Assays:
Cdh23 EC1-10 = assay: AFM force-clamp spectroscopy (single molecule); Pcdh15 EC1-2 covalently on the cantilever, Cdh23 variants (EC1-5, EC1-10, EC1-21, EC1-27) covalently on the coverslip (sortagging, Mal-PEG2-NHS); contact 1-2 s, clamp 10 s; 25 mM HEPES, 100 mM NaCl, 50 mM KCl, 50 µM CaCl2; modified sliding-rebinding model fit with unfolding probabilities
Cdh23 EC1-21 = assay: as above
Cdh23 EC1-5 = assay: as above
[1] = molecular target: full-length Cdh23 EC1-27 (27 domains); assay: as above
[2] = molecular target: Pcdh15 EC1-11 PICA (cis-dimer); assay: AFM force-clamp spectroscopy (single molecule); Cdh23 EC1-27-Fc dimer covalently on the cantilever, Pcdh15 EC1-11 PICA dimer covalently on the coverslip (sortagging); cantilever retracted 70 nm before clamping, clamping time 20 s; 25 mM HEPES, 100 mM NaCl, 50 mM KCl, 50 µM CaCl2; lifetimes from exponential fits of survival probability, Bell model fits
[3] = molecular target: Mouse Cdh23 EC1-2 (mouse) (UniProt Q99PF4); assay: AFM force-clamp spectroscopy (single molecule); Pcdh15 EC1-2 (WT or R113G) covalently on the cantilever, Cdh23 EC1-2 covalently on the coverslip (sortagging, Mal-PEG5000-NHS); contact 1-2 s, clamp 10 s; 25 mM HEPES, 100 mM NaCl, 50 mM KCl, 50 µM CaCl2; modified sliding-rebinding model fit of lifetime against force
Sequence of Mouse Cdh23 EC1-2 (mouse) (Q99PF4 24-228): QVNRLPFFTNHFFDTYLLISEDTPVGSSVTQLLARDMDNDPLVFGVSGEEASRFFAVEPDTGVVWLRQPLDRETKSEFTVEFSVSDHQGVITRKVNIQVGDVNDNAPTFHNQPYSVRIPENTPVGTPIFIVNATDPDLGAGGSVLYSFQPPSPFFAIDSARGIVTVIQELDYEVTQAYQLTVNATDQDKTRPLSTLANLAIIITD

Work on “Mouse Pcdh15 EC1-2 (from UniProt Q99PJ1 27-259) (domain or fragment)” yielded a k+1 (intrinsic rate of reorganization, sliding-rebinding model) (Cdh23 EC1-10) of 0.9 s⁻¹, a k+2 (intrinsic rate of rebinding, sliding-rebinding model) (Cdh23 EC1-10) of 7.8 s⁻¹ and a k-1 (intrinsic off-rate at zero force, single bond of the sliding-rebinding model) (Cdh23 EC1-10) of 0.39 s⁻¹. The k+1 (intrinsic rate of reorganization, sliding-rebinding model) (Cdh23 EC1-21) was 1.2 s⁻¹, the k+2 (intrinsic rate of rebinding, sliding-rebinding model) (Cdh23 EC1-21) was 0.8 s⁻¹ and the k-1 (intrinsic off-rate at zero force, single bond of the sliding-rebinding model) (Cdh23 EC1-21) was 0.35 s⁻¹. The k+1 (intrinsic rate of reorganization, sliding-rebinding model) (Cdh23 EC1-5) was 0.9 s⁻¹, the k+2 (intrinsic rate of rebinding, sliding-rebinding model) (Cdh23 EC1-5) was 29.4 s⁻¹ and the k-1 (intrinsic off-rate at zero force, single bond of the sliding-rebinding model) (Cdh23 EC1-5) was 0.61 s⁻¹. It also gave a zero-force lifetime (Cdh23 EC1-5) of 1.6 s, a k+1 (intrinsic rate of reorganization, sliding-rebinding model) [1] of 0.5 s⁻¹ and a k+2 (intrinsic rate of rebinding, sliding-rebinding model) [1] of 0.5 s⁻¹. It also gave a k-1 (intrinsic off-rate at zero force, single bond of the sliding-rebinding model) [1] of 0.29 s⁻¹ and a zero-force lifetime [1] of 3.4 s.
For “Cdh23 EC1-27 with the Fc region on its C-terminus (cis-dimer) (Fc fusion)”, the intrinsic lifetime (τ0), low-force slip regime extrapolated to zero force [2] was 31.8 s, the lifetime in the ideal-bond region (τ0) [2] was 6.3 s and the lifetime of the short-lived component of the bi-exponential decay at high forces (>70 pN) [2] was 1 s. The τ0 of the Bell fit of the second slip region [2] was 8.4 s.
In the case of “Pcdh15 EC1-2 (R113G), Q99PJ1 27-259 (domain or fragment; other documents disagree on this pair)”, the k+1 (intrinsic rate of reorganization, sliding-rebinding model) [3] is reported as 0.6 s⁻¹ and the k-1 (intrinsic off-rate at zero force, single bond of the sliding-rebinding model) [3] is reported as 0.3 s⁻¹.
